The text below walks through data of article PMC4598761, “Co-Expression of NEU2 and GBA3 Causes a Drastic Reduction in Cytosolic Sialyl Free N-glycans in Human MKN45 Stomach Cancer Cells—Evidence for the Physical Interaction of NEU2 and GBA3” (Biomolecules, 2015).

The assay concerns the target T1, His-GBA3-HA (recombinant epitope-tagged cytosolic β-glycosidase GBA3) (human, UniProt Q9H227 1-469).
T1 construct: GBA3, cytosolic β-glycosidase, human; Construct pDEST17-His-GBA3-HA; also called β-galactosidase/β-glucosidase; source: E. coli BL21(AI), purified (Ni-Sepharose 6 Fast Flow); not shown: His6, N-terminal, kept; HA, C-terminal, kept
T1 sequence (looked up): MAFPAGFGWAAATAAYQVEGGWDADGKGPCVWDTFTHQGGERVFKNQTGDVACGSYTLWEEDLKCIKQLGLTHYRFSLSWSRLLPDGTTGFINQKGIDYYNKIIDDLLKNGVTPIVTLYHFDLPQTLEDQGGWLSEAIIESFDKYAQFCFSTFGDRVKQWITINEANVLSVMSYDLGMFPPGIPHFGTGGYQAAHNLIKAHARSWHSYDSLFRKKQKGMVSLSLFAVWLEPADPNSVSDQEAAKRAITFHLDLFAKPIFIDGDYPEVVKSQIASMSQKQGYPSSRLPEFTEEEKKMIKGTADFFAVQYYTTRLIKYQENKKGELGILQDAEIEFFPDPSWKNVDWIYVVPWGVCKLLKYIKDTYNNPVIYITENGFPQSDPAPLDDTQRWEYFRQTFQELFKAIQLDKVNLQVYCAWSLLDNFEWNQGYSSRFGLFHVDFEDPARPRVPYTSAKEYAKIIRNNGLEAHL
The assay can be described thus: pull-down; purified recombinant proteins mixed overnight at 4 °C (1.5 mg/mL each), precipitated with 20 μL Ni-Sepharose 6 Fast Flow for 1 h at 4 °C (His-tagged protein held), washed three times with PBS, western blotting. Particulars: both partners purified.

B1: GST-NEU2 (recombinant cytosolic sialidase NEU2) (enzyme, human, UniProt Q9Y3R4 1-380, looked up)
chain: MASLPVLQKESVFQSGAHAYRIPALLYLPGQQSLLAFAEQRASKKDEHAELIVLRRGDYDAPTHQVQWQAQEVVAQARLDGHRSMNPCPLYDAQTGTLFLFFIAIPGQVTEQQQLQTRANVTRLCQVTSTDHGRTWSSPRDLTDAAIGPAYREWSTFAVGPGHCLQLHDRARSLVVPAYAYRKLHPIQRPIPSAFCFLSHDHGRTWARGHFVAQDTLECQVAEVETGEQRVVTLNARSHLRARVQAQSTNDGLDFQESQLVKKLVEPPPQGCQGSVISFPSPRSGPGSPAQWLLYTHPTHSWQRADLGAYLNPRPPAPEAWSEPVLLAKGSCAYSDLQSMGTGPDGSPLFGCLYEANDYEEIVFLMFTLKQAFPAEYLPQ
notes: NEU2, cytosolic sialidase; source: E. coli BL21(DE3), purified (Glutathione Sepharose 4B)
Regarding B1, the binding result is “binds”.
